The source of these data is patent US20240117061A1 (WUHAN YZY BIOPHARMA, published 2024).

In experiment [1] the target is T1, human BCMA on cells (NCI-H929, U266B1, HEK293 huBCMA) (human, UniProt Q02223 1-184).
T1 construct: whole, on cells; also called cell surface BCMA antigen
T1 sequence (looked up): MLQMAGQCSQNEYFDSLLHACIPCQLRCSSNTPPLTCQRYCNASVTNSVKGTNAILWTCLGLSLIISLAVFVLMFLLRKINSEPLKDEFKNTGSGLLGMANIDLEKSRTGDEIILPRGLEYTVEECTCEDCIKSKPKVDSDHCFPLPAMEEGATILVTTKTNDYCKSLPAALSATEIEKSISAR
In words: flow cytometry on NCI-H929 cells. On the procedure:
(§1) Procedures: Preparation of cell suspensions: The cells were resuspended in PBS, and the cell density was adjusted to 2×10⁵ cells/well. Mouse antibodies were added to a 96-well plate at […] and serially 3-fold diluted from 3000 nM. The plate was incubated for 1 h at 4° C. 150 μL of precooled PBS containing 1% of FBS was added into the 96-well plate after the co-incubation with the primary antibody was finished. The mixtures were centrifuged at 300×g for 5 min and the supernatants were discarded. The above procedures were repeated once. The fluorescent secondary antibody PE […] (Biolegend, 409304) was added at 80 μL/well. The plate was incubated at 4° C. for 30 min. 150 μL of precooled PBS containing 1% of FBS was added into the 96-well plate after the co-incubation with the secondary antibody was finished. The mixtures were uniformly mixed with a pipette. The 96-well plate was centrifuged at 300×g for 5 min in a plate centrifuge and the supernatants were removed. The above procedures were repeated once. The cells were resuspended in 100 μL of PBS containing 1% of FBS and detected on a flow cytometry (BD Accuri™ C6).

Experiment [2] addresses T2, recombinant human BCMA-his fusion protein (ACRO Biosystem, Cat. No. BCA-H522y) (human, UniProt Q02223 1-54).
T2 construct: extracellular domain; Bought protein; also called huBCMA-his; hu BCMA-his; not shown: His tag
T2 sequence (looked up): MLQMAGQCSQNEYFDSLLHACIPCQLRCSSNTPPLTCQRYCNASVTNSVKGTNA
In words: SPR (Biacore T200), anti-His capture on CM5, 1:1 fit. The protocol: In this example, the antigen-antibody binding kinetics and affinity were determined by the BIACORE method.
Procedures: The anti-histidine antibody (GE, His capture Kit, Cat. No. 28995056) was conjugated to the Sereis S Sensor Chip CMS to capture the test articles, thus acquiring the binding kinetic and affinity data of the antigen, as an analyte, to the test articles. The initial concentration for detecting the binding of the antigen and the test articles was 10 nM. […] The Start up flushing process (1×HBS-EP+buffer) was performed at least thrice before loading to equilibrate the system. The association and dissociation tendencies between the antigen and the test articles were detected. When the dissociation was completed, a regeneration reagent was loaded for regeneration before the detection of the next concentration was performed. After the detection was finished, the data were fitted by using a 1:1 Binding fitting mode in data analysis software (Biacore T200 Evaluation Software).

The target of experiment [3] is T2, recombinant human BCMA-his fusion …. Briefly: competitive ELISA, coated huBCMA-his, competitor APRIL-biotin. The protocol: The 96-well microplate was treated with 100 μL of 0.5 μg/mL huBCMA-his in PBS and incubated overnight at 4° C. The plate was then washed thrice with PBS washing buffer containing 0.1% of Tween-20 and blocked with 300 μL of PBS containing 1% of BSA for 2 h. 100 μL of each BCMA antibody was added to the plate. […] The plate was incubated at 37° C. for 1 h, and unbound secondary antibody was washed with PBS washing buffer containing 0.1% of Tween-20. The TMB chromogenic solution was added at 100 μL/well. After a 5-min reaction at room temperature, 2 M H₂SO₄ was added at 100 μL/well to terminate the reaction. The microplate was placed on a microplate reader (Molecular Devices, SPECTRA Max plus 384) and the absorbance OD450 value was read at 450 nm wavelength.

Experiment [4] addresses T3, recombinant cynomolgus monkey cynoBCMA-his (ACRO Biosystem, Cat. No. BCA-052H7) (cynomolgus monkey, UniProt A0A2K5UD97 1-53).
T3 construct: extracellular domain; Bought protein; also called cynomolgus/rhesus macaque BCMA/TNFRSF17 protein; not shown: His tag
Briefly: ELISA, coated antigen. The method in brief: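 Plates coated overnight at 4° C with 0.5 μg/mL His-tagged BCMA antigen (human or cynomolgus) in PBS pH 7.4, then blocked with 3% BSA. Humanized antibodies in 3-fold serial dilutions (11 points) were bound 1 h at room temperature. Detection used HRP anti-His antibody and TMB, read as OD450.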

Experiment [5] deals with T4, cynomolgus monkey BCMA on HEK293 cynoBCMA cells (cynomolgus monkey, UniProt A0A2K5UD97 1-183).
T4 construct: whole, on cells
T4 sequence (A0A2K5UD97 entry or part of it): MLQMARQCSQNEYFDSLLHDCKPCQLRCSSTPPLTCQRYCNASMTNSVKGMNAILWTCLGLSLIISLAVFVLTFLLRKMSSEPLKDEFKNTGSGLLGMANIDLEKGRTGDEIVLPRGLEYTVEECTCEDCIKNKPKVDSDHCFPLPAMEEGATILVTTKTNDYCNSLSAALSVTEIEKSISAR
Briefly: flow cytometry on HEK293 cynoBCMA cells. On the procedure: as §1

For experiment [6], the target named is T3, recombinant cynomolgus monkey …. Briefly: competitive ELISA, coated cynoBCMA-his, competitor 83A10-biotin.

Some results are limits rather than exact numbers.

T3 sequence (A0A2K5UD97 entry or part of it): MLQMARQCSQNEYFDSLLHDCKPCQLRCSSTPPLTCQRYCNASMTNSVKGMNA

B1: human-mouse chimeric antibody c-mAb2 (antibody, human IgG1, V domains shown)
VH: QVQLQQSDAELVKPGTSVKISCKVSGYTFTDHTIHWMKQRPEQGLEWIGYIYPRNGNTKYNEKFKGKATLTADKSSSTAYMHLNSLTSEDSAVYFCARYDYDGYFDVWGTGTTVTVSS
VL: DVVMTQTPLSLPVSLGDQASISCRSSQSHVHSDGHTYLHWYLQKPGQSPELLIYKVSNRFSGVPDRFSGSGSGTDFTLKISRVEAEDLGVYFCSQNTHFPWTFGGGTKLEIK
notes: not shown: human IgG1 heavy chain constant region, GenBank No. AK303185.1; human kappa light chain constant region, GenBank No. MG815648.1
In experiment [1], B1 showed an EC50 of 5.7 nM. Besides, in experiment [2], the Kd turned out to be 1.45 nM, the koff amounted to 0.0679 s⁻¹ and the kon stood at 4.68e+07 M⁻¹ s⁻¹. The half-inhibitory concentration (IC50) in experiment [3] worked out at 0.0108 µg/mL.

B2: human-mouse chimeric antibody c-mAb3 (antibody, human IgG1, V domains shown)
VH: EVQLQQSGPELVKPGASVKILCKASGYTITDYNMDWVKRSHGKSLEWIGNINPHNGGSIYNQKFKGKATLTVDKSSSTAFMELRSLTSEDTAVYYCARGDATLVLDYWGQGTSLTVSS
VL: DIVLTQSPASLAVSLGQRATISCRASKSVSTSGLSYMHWYQQKPGQPPKVLIYLASNLESGVPARFSGSGSGTDFTLNIHPVEEEDAATYYCQHSRELPPTFGAGTKLELK
notes: as for B1
With B2, the EC50 in experiment [4] was 0.0248 nM; in experiment [1], 8.25 nM; in experiment [5], 2.66 nM. In addition, the Kd in experiment [2] stood at 0.38 nM. In addition, the koff in experiment [2] was 0.00178 s⁻¹. Besides, the kon in experiment [2] was 4.69e+06 M⁻¹ s⁻¹. Besides, the IC50 in experiment [3] is more than 12 µg/mL; in experiment [6], 1.05 µg/mL.
